{
  "source": "patent US20090155236",
  "proteins": {"B1": {"name": "purified full-length epsilon PKC (protein)", "chain": "MVVFNGLLKIKICEAVSLKPTAWSLRHAVGPRPQTFLLDPYIALNVDDSRIGQTATKQKTNSPAWHDEFVTDVCNGRKIELAVFHDAPIGYDDFVANCTIQFEELLQNGSRHFEDWIDLEPEGRVYVIIDLSGSSGEAPKDNEERVFRERMRPRKRQGAVRRRVHQVNGHKFMATYLRQPTYCSHCRDFIWGVIGKQGYQCQVCTCVVHKRCHELIITKCAGLKKQETPDQVGSQRFSVNMPHKFGIHNYKVPTFCDHCGSLLWGLLRQGLQCKVCKMNVHRRCETNVAPNCGVDRIAKVLADLGVTPDKITNSGQRRKKLIAGAESPQPASGSSPSEEDRSKSAPTSPCDQEIKELENNIRKALSFDNRGEEHRAASSPDGQLMSPGENGEVRQGQAKRLGLDEFNFIKVLGKGSFGKVMLAELKGKDEVYAVKVLKKDVILQDDDVDCTMTEKRILALARKHPYLTQLYCCFQTKDRLFFVMEYVNGGDLMFQIQRSRKFDEPRSRFYAAEVTSALMFLHQHGVIYRDLKLDNILLDAEGHCKLADFGMCKEGILNGVTTTTFCGTPDYIAPEILQELEYGPSVDWWALGVLMYEMMAGQPPFEADNEDDLFESILHDDVLYPVWLSKEAVSILKAFMTKNPHKRLGCVASQNGEDAIKQHPFFKEIDWVLLEQKKIKPPFKPRIKTKRDVNNFDQDFTREEPVLTLVDEAIVKQINQEEFKGFSYFGEDLMP"}, "B2": {"name": "recombinant full-length delta PKC (protein)", "chain": "MAPFLRISFNSYELGSLQVEDEASQPFCAVKMKEALSTERGKTLVQKKPTMYPEWKTTFDAHIYEGRVIQIVLMRAAEDPVSEVTVGVSVLAERCKKNNGKAEFWLDLQPQAKVLMCVQYFLEDGDCKQSMRSEEEAKFPTMNRRGAIKQAKIHYIKNHEFIATFFGQPTFCSVCKEFVWQKQGYKCRQCNAAIHKKCIDKIIGRCTGTATNSRDTIFQKERFNIDMPHRFKVYNYMSPTFCDHCGSLLWGLVKQGLKCEDCGMNVHHKCREKVANLCGINQKLLAEALNQVTQRSSRKLDTTESVGIYQGFEKKPEVSGSDILDNNGTYGKIWEGSTRCTLENFTFQKVLGKGSFGKVLLAELKGKDKYFAIKCLKKDVVLIDDDVECTMVEKRVLALAWESPFLTHLICTFQTKDHLFFVMEFLNGGDLMFHIQDKGRFELYRATFYAAEIICGLQFLHSKGIIYRDLKLDNVMLDRDGHIKIADFGMCKENIFGEGRASTFCGTPDYIAPEILQGLKYSFSVDWWSFGVLLYEMLIGQSPFHGDDEDELFESIRVDTPHYPRWITKESKDIMEKLFERDPDKRLGVTGNIRIHPFFKTINWSLLEKRKVEPPFKPKVKSPSDYSNFDPEFLNEKPQLSFSDKNLIDSMDQEAFHGFSFVNPKFEQFLDI"}},
  "molecular_target": "T1, annexin V protein",
  "T1 chain": "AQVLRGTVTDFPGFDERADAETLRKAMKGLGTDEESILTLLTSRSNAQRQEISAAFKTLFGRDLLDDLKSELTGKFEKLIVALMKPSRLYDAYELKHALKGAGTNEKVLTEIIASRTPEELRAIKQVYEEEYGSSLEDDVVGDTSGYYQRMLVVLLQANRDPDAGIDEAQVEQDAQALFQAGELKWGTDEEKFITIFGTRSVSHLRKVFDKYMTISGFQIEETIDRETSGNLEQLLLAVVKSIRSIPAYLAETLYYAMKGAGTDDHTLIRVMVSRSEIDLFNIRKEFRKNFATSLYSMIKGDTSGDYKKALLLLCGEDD",
  "data": [
    {"protein": "B1", "values": [
      {"measurement": "histone phosphorylation in an in vitro kinase reaction (SDS-PAGE, autoradiography)", "value": "annexin V does not increase the activity of epsilon PKC"}
    ]},
    {"protein": "B2", "values": [
      {"measurement": "histone phosphorylation in an in vitro kinase reaction (SDS-PAGE, autoradiography)", "value": "The addition of annexin V to delta PKC in the presence of PS/DAG (Lane 3) increases the catalytic activity of delta PKC"}
    ]}
  ]
}
